Data reported in patent US20130011380A1.
Values joined by “and” are separate entries in the source; they are usually repeats but may differ in a detail not shown here. Equal entries are not always repeated. One block for each substance: values may come before it.

What was measured:
Test in all cases: anti-Flag IP-MS, mES nuclear extract
Upf1 (mouse) = Upf1 (mouse) (UniProt Q9EPU0)
Impdh2 (mouse) = Impdh2 (mouse) (UniProt P24547)
Spna2 (mouse) = Spna2 (mouse) (UniProt P16546)
Cnot1 (mouse) = Cnot1 (mouse) (UniProt Q6ZQ08)
Xpo1 (mouse) = Xpo1 (mouse) (UniProt Q6P5F9)
Smarca5 (mouse) = Smarca5 (mouse) (UniProt Q91ZW3)
Ywhaz (mouse) = Ywhaz (mouse) (UniProt P63101)
Lars (mouse) = Lars (mouse) (UniProt Q8BMJ2)
Zc3h18 (mouse) = Zc3h18 (mouse) (UniProt Q0P678)
Mcm6 (mouse) = Mcm6 (mouse) (UniProt P97311)
Atxn10 (mouse) = Atxn10 (mouse) (UniProt P28658)
Psmc2 (mouse) = Psmc2 (mouse) (UniProt P46471)
Ssrp1 (mouse) = Ssrp1 (mouse) (UniProt Q08943)
Mcm3 (mouse) = Mcm3 (mouse) (UniProt P25206)
Copa (mouse) = Copa (mouse) (UniProt Q8CIE6)
Dnaja2 (mouse) = Dnaja2 (mouse) (UniProt Q9QYJ0)
Tcp1 (mouse) = Tcp1 (mouse) (UniProt P11983)
Eprs (mouse) = Eprs (mouse) (UniProt Q8CGC7)
Col18a1 (mouse) = Col18a1 (mouse) (UniProt P39061)
Pfkl (mouse) = Pfkl (mouse) (UniProt P12382)
Cct6a (mouse) = Cct6a (mouse) (UniProt P80317)
Prpf4b (mouse) = Prpf4b (mouse) (UniProt Q61136)
Cse1l (mouse) = Cse1l (mouse) (UniProt Q9ERK4)
Uba2 (mouse) = Uba2 (mouse) (UniProt Q9Z1F9)
Peg10 (mouse) = Peg10 (mouse) (UniProt Q7TN75)
Prpf4 (mouse) = Prpf4 (mouse) (UniProt Q9DAW6)
Hells (mouse) = Hells (mouse) (UniProt Q60848)
Smarcc1 (mouse) = Smarcc1 (mouse) (UniProt P97496)
Etl4 (mouse) = Etl4 (mouse) (UniProt A2AQ25)
Supt5h (mouse) = Supt5h (mouse) (UniProt O55201)
Ctbp2 (mouse) = Ctbp2 (mouse) (UniProt P56546)
Alpl (mouse) = Alpl (mouse) (UniProt P09242)
Abce1 (mouse) = Abce1 (mouse) (UniProt P61222)
Dnmt3a (mouse) = Dnmt3a (mouse) (UniProt O88508)
Pum1 (mouse) = Pum1 (mouse) (UniProt Q80U78)
Utf1 (mouse) = Utf1 (mouse) (UniProt Q6J1H4)
Aff4 (mouse) = Aff4 (mouse) (UniProt Q9ESC8)
Smarcad1 (mouse) = Smarcad1 (mouse) (UniProt Q04692)
Cbx5 (mouse) = Cbx5 (mouse) (UniProt Q61686)
Atxn2l (mouse) = Atxn2l (mouse) (UniProt Q7TQH0)

Chain of Eprs (mouse) (Q8CGC7 whole entry): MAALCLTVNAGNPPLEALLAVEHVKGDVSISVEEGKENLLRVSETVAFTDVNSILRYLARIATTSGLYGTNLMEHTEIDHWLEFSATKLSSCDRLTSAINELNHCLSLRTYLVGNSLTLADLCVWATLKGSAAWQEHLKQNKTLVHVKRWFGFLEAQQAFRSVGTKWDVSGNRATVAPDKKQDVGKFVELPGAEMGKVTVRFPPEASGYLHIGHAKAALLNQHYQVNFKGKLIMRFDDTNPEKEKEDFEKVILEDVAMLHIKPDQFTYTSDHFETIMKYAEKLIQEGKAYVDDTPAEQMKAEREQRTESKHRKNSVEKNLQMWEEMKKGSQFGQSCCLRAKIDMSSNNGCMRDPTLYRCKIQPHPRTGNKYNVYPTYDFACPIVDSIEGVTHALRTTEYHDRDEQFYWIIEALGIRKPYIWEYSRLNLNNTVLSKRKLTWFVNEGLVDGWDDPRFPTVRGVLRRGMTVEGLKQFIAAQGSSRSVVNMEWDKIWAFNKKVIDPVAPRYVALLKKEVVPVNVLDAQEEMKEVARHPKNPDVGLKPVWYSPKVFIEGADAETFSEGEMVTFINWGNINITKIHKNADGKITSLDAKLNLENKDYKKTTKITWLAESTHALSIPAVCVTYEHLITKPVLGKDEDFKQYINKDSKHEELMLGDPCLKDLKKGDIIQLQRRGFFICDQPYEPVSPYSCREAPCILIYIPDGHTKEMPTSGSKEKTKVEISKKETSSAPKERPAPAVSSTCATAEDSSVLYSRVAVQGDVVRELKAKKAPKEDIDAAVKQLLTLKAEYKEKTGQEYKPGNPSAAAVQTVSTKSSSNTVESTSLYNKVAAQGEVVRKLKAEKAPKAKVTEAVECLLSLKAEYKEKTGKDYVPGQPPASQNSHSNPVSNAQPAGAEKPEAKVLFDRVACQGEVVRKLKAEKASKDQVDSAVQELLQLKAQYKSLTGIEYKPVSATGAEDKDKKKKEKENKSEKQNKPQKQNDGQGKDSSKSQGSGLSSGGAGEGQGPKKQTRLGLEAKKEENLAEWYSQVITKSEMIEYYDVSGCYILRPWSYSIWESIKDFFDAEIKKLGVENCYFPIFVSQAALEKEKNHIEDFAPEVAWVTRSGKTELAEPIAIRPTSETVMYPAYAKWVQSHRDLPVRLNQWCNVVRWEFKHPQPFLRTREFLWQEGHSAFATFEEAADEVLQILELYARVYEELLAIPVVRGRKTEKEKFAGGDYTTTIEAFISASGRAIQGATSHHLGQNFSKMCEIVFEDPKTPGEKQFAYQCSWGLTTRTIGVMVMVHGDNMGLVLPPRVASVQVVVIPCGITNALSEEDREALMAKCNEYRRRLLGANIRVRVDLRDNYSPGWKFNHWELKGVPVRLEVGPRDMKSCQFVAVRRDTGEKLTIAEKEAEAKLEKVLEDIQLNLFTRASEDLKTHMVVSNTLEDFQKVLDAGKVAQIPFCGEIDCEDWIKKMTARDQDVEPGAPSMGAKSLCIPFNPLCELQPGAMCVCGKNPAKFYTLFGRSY
Chain of Smarcad1 (mouse) (Q04692 whole entry): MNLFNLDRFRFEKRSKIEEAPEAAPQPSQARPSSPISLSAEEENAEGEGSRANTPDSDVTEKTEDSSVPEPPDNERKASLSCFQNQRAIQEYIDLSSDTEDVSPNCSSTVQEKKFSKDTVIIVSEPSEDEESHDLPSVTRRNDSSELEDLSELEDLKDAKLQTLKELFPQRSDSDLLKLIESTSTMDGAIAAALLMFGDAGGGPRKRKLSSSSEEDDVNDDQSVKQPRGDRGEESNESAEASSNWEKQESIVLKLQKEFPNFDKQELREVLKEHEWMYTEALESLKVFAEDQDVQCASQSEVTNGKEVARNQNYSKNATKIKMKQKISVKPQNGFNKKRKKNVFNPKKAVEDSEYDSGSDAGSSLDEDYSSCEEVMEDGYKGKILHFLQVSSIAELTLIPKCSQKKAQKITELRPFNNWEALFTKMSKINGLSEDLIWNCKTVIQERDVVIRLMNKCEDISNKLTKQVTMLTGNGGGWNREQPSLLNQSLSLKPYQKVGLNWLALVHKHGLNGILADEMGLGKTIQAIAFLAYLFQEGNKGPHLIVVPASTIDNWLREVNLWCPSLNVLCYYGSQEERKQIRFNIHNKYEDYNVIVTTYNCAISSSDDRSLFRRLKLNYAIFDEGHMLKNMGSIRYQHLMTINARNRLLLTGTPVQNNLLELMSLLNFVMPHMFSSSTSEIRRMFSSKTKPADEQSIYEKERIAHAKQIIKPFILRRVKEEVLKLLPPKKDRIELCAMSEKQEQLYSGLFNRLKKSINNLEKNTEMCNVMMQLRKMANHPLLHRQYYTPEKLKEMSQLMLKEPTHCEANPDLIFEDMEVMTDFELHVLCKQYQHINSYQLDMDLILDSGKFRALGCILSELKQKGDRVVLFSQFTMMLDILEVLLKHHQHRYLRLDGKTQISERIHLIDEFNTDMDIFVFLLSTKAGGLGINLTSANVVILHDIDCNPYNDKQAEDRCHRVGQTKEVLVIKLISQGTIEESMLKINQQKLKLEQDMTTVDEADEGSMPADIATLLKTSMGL
Chain of Pfkl (mouse) (P12382 2-780 limits assumed): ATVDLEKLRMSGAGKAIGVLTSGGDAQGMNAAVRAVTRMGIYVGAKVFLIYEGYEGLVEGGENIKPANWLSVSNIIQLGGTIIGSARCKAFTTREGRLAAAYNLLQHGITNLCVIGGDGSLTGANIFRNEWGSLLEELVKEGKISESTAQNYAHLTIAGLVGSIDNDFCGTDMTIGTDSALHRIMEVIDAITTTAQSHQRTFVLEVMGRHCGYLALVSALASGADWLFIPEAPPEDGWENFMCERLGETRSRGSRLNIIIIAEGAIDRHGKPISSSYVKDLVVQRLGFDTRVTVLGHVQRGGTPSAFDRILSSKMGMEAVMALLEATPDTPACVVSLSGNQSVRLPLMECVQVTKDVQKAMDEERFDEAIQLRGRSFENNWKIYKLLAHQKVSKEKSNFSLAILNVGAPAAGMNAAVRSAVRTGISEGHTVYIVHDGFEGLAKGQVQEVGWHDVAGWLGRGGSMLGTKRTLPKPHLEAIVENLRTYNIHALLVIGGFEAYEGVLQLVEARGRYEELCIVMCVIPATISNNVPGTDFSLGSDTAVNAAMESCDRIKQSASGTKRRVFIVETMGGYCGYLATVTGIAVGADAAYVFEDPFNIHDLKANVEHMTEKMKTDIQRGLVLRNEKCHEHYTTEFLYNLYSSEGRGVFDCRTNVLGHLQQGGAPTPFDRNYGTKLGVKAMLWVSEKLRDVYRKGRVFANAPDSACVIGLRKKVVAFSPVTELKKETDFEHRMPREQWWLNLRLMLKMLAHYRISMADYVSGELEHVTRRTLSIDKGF
Chain of Cbx5 (mouse) (Q61686 whole entry): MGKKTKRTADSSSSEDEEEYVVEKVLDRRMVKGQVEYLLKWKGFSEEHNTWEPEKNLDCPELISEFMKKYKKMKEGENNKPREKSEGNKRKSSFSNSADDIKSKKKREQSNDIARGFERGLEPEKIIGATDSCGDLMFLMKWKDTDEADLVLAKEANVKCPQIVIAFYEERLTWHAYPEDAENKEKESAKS
Chain of Ssrp1 (mouse) (Q08943 2-708 limits assumed): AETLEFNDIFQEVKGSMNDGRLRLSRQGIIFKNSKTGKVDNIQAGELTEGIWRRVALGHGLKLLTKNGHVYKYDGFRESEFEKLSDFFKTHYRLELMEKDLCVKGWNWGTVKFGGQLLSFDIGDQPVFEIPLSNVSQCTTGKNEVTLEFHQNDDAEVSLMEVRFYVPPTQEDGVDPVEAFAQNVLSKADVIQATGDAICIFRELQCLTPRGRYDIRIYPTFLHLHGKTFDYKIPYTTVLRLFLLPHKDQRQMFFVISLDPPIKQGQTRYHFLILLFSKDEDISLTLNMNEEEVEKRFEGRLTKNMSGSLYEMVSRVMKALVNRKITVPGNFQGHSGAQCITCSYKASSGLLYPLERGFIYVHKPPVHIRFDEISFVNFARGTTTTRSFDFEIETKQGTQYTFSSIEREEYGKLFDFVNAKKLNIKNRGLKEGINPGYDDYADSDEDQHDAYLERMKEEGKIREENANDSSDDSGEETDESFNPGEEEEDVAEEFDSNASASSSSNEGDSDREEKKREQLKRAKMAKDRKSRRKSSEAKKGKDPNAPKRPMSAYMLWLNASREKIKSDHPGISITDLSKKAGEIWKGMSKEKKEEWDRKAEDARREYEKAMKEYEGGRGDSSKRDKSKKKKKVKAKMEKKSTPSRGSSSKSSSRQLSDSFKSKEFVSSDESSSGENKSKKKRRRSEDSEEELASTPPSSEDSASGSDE
Chain of human AID containing two tandem Flag tags (Flag-human AID) (Q9GZX7 whole entry): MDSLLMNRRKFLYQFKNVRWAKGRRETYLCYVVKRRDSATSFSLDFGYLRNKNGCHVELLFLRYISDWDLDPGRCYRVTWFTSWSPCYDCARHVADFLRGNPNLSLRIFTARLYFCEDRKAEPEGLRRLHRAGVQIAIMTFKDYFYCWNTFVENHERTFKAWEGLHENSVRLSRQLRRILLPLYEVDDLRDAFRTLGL
Chain of Ywhaz (mouse) (P63101 whole entry): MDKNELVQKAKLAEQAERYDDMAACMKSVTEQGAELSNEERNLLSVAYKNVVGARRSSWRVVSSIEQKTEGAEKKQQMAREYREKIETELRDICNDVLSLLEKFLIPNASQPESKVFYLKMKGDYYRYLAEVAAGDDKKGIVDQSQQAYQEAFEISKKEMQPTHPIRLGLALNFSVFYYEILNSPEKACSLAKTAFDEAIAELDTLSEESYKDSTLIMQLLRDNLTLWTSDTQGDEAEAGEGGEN
Chain of Utf1 (mouse) (Q6J1H4 whole entry): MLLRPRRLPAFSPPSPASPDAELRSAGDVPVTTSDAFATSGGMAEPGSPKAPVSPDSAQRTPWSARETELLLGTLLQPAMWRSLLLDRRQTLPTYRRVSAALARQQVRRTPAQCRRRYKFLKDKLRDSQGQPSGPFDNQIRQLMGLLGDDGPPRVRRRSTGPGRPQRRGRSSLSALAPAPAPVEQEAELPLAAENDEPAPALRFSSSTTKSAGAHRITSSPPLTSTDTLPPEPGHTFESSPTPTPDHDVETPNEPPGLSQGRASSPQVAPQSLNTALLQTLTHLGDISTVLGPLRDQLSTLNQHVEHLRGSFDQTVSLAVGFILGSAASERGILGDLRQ

Nucleus peptide (Upf1 (mouse)): 2 peptides | Nucleus spectra (Upf1 (mouse)): 3 spectra | Nucleus peptide (Impdh2 (mouse)): 8 peptides | Nucleus spectra (Impdh2 (mouse)): 17 spectra | Nucleus peptide (Spna2 (mouse)): 5 peptides | Nucleus spectra (Spna2 (mouse)): 9 spectra | Nucleus peptide (Cnot1 (mouse)): 3 peptides | Nucleus spectra (Cnot1 (mouse)): 4 spectra | Nucleus peptide (Xpo1 (mouse)): 0 peptides | Nucleus spectra (Xpo1 (mouse)): 0 spectra | Nucleus peptide (Smarca5 (mouse)): 8 peptides | Nucleus spectra (Smarca5 (mouse)): 15 spectra | Nucleus peptide (Ywhaz (mouse)): 1 peptides | Nucleus spectra (Ywhaz (mouse)): 6 spectra | Nucleus peptide (Lars (mouse)): 4 peptides | Nucleus spectra (Lars (mouse)): 6 spectra | Nucleus peptide (Zc3h18 (mouse)): 3 peptides and 1 peptides | Nucleus peptide (Mcm6 (mouse)): 8 peptides | Nucleus spectra (Mcm6 (mouse)): 12 spectra | Nucleus peptide (Atxn10 (mouse)): 4 peptides | Nucleus spectra (Atxn10 (mouse)): 10 spectra | Nucleus peptide (Psmc2 (mouse)): 1 peptides | Nucleus spectra (Psmc2 (mouse)): 1 spectra | Nucleus peptide (Ssrp1 (mouse)): 2 peptides | Nucleus spectra (Ssrp1 (mouse)): 4 spectra | Nucleus peptide (Mcm3 (mouse)): 5 peptides | Nucleus spectra (Mcm3 (mouse)): 7 spectra | Nucleus peptide (Copa (mouse)): 1 peptides | Nucleus spectra (Copa (mouse)): 4 spectra | Nucleus peptide (Dnaja2 (mouse)): 1 peptides | Nucleus spectra (Dnaja2 (mouse)): 2 spectra | Nucleus peptide (Tcp1 (mouse)): 1 peptides | Nucleus spectra (Tcp1 (mouse)): 2 spectra | Nucleus peptide (Eprs (mouse)): 3 peptides | Nucleus spectra (Eprs (mouse)): 3 spectra | Nucleus peptide (Col18a1 (mouse)): 1 peptides | Nucleus spectra (Col18a1 (mouse)): 1 spectra | Nucleus peptide (Pfkl (mouse)): 1 peptides | Nucleus spectra (Pfkl (mouse)): 1 spectra | Nucleus peptide (Cct6a (mouse)): 6 peptides | Nucleus spectra (Cct6a (mouse)): 9 spectra | Nucleus peptide (Prpf4b (mouse)): 0 peptides | Nucleus spectra (Prpf4b (mouse)): 0 spectra | Nucleus peptide (Cse1l (mouse)): 0 peptides | Nucleus spectra (Cse1l (mouse)): 0 spectra | Nucleus peptide (Uba2 (mouse)): 2 peptides | Nucleus spectra (Uba2 (mouse)): 2 spectra | Nucleus peptide (Peg10 (mouse)): 2 peptides | Nucleus spectra (Peg10 (mouse)): 2 spectra | Nucleus peptide (Prpf4 (mouse)): 2 peptides | Nucleus spectra (Prpf4 (mouse)): 2 spectra | Nucleus peptide (Hells (mouse)): 1 peptides | Nucleus spectra (Hells (mouse)): 1 spectra | Nucleus peptide (Smarcc1 (mouse)): 4 peptides | Nucleus spectra (Smarcc1 (mouse)): 4 spectra | Nucleus peptide (Etl4 (mouse)): 0 peptides | Nucleus spectra (Etl4 (mouse)): 0 spectra | Nucleus peptide (Supt5h (mouse)): 1 peptides | Nucleus spectra (Supt5h (mouse)): 1 spectra | Nucleus peptide (Ctbp2 (mouse)): 2 peptides | Nucleus spectra (Ctbp2 (mouse)): 4 spectra | Nucleus peptide (Alpl (mouse)): 5 peptides | Nucleus spectra (Alpl (mouse)): 10 spectra | Nucleus peptide (Abce1 (mouse)): 3 peptides | Nucleus spectra (Abce1 (mouse)): 3 spectra | Nucleus peptide (Dnmt3a (mouse)): 0 peptides | Nucleus spectra (Dnmt3a (mouse)): 0 spectra | Nucleus peptide (Pum1 (mouse)): 0 peptides | Nucleus spectra (Pum1 (mouse)): 0 spectra | Nucleus peptide (Utf1 (mouse)): 4 peptides | Nucleus spectra (Utf1 (mouse)): 6 spectra | Nucleus peptide (Aff4 (mouse)): 0 peptides | Nucleus spectra (Aff4 (mouse)): 0 spectra | Nucleus peptide (Smarcad1 (mouse)): 1 peptides | Nucleus spectra (Smarcad1 (mouse)): 1 spectra | Nucleus peptide (Cbx5 (mouse)): 2 peptides | Nucleus spectra (Cbx5 (mouse)): 3 spectra | Nucleus peptide (Atxn2l (mouse)): 2 peptides | Nucleus spectra (Atxn2l (mouse)): 3 spectra
Substance: 2x Flag tag only (control) (peptide)

Nucleus peptide (Upf1 (mouse)): 5 peptides | Nucleus spectra (Upf1 (mouse)): 8 spectra | Nucleus peptide (Impdh2 (mouse)): 12 peptides | Nucleus spectra (Impdh2 (mouse)): 37 spectra | Nucleus peptide (Spna2 (mouse)): 14 peptides | Nucleus spectra (Spna2 (mouse)): 28 spectra | Nucleus peptide (Cnot1 (mouse)): 6 peptides | Nucleus spectra (Cnot1 (mouse)): 11 spectra | Nucleus peptide (Xpo1 (mouse)): 4 peptides | Nucleus spectra (Xpo1 (mouse)): 6 spectra | Nucleus peptide (Smarca5 (mouse)): 16 peptides | Nucleus spectra (Smarca5 (mouse)): 45 spectra | Nucleus peptide (Ywhaz (mouse)): 6 peptides | Nucleus spectra (Ywhaz (mouse)): 17 spectra | Nucleus peptide (Lars (mouse)): 9 peptides | Nucleus spectra (Lars (mouse)): 13 spectra | Nucleus peptide (Zc3h18 (mouse)): 5 peptides and 2 peptides | Nucleus spectra (Zc3h18 (mouse)): 20 spectra and 8 spectra | Nucleus peptide (Mcm6 (mouse)): 13 peptides | Nucleus spectra (Mcm6 (mouse)): 29 spectra | Nucleus peptide (Atxn10 (mouse)): 10 peptides | Nucleus spectra (Atxn10 (mouse)): 23 spectra | Nucleus peptide (Psmc2 (mouse)): 3 peptides | Nucleus spectra (Psmc2 (mouse)): 7 spectra | Nucleus peptide (Ssrp1 (mouse)): 9 peptides | Nucleus spectra (Ssrp1 (mouse)): 18 spectra | Nucleus peptide (Mcm3 (mouse)): 9 peptides | Nucleus spectra (Mcm3 (mouse)): 22 spectra | Nucleus peptide (Copa (mouse)): 5 peptides | Nucleus spectra (Copa (mouse)): 9 spectra | Nucleus peptide (Dnaja2 (mouse)): 12 peptides | Nucleus spectra (Dnaja2 (mouse)): 43 spectra | Nucleus peptide (Tcp1 (mouse)): 3 peptides | Nucleus spectra (Tcp1 (mouse)): 5 spectra | Nucleus peptide (Eprs (mouse)): 5 peptides | Nucleus spectra (Eprs (mouse)): 7 spectra | Nucleus peptide (Col18a1 (mouse)): 4 peptides | Nucleus spectra (Col18a1 (mouse)): 5 spectra | Nucleus peptide (Pfkl (mouse)): 6 peptides | Nucleus spectra (Pfkl (mouse)): 10 spectra | Nucleus peptide (Cct6a (mouse)): 9 peptides | Nucleus spectra (Cct6a (mouse)): 20 spectra | Nucleus peptide (Prpf4b (mouse)): 3 peptides | Nucleus spectra (Prpf4b (mouse)): 7 spectra | Nucleus peptide (Cse1l (mouse)): 3 peptides | Nucleus spectra (Cse1l (mouse)): 4 spectra | Nucleus peptide (Uba2 (mouse)): 5 peptides | Nucleus spectra (Uba2 (mouse)): 5 spectra | Nucleus peptide (Peg10 (mouse)): 3 peptides | Nucleus spectra (Peg10 (mouse)): 5 spectra | Nucleus peptide (Prpf4 (mouse)): 4 peptides | Nucleus spectra (Prpf4 (mouse)): 5 spectra | Nucleus peptide (Hells (mouse)): 6 peptides | Nucleus spectra (Hells (mouse)): 13 spectra | Nucleus peptide (Smarcc1 (mouse)): 6 peptides | Nucleus spectra (Smarcc1 (mouse)): 10 spectra | Nucleus peptide (Etl4 (mouse)): 7 peptides | Nucleus spectra (Etl4 (mouse)): 13 spectra | Nucleus peptide (Supt5h (mouse)): 6 peptides | Nucleus spectra (Supt5h (mouse)): 11 spectra | Nucleus peptide (Ctbp2 (mouse)): 4 peptides | Nucleus spectra (Ctbp2 (mouse)): 9 spectra | Nucleus peptide (Alpl (mouse)): 12 peptides | Nucleus spectra (Alpl (mouse)): 25 spectra | Nucleus peptide (Abce1 (mouse)): 7 peptides | Nucleus spectra (Abce1 (mouse)): 11 spectra | Nucleus peptide (Dnmt3a (mouse)): 6 peptides | Nucleus spectra (Dnmt3a (mouse)): 13 spectra | Nucleus peptide (Pum1 (mouse)): 2 peptides | Nucleus spectra (Pum1 (mouse)): 5 spectra | Nucleus peptide (Utf1 (mouse)): 7 peptides | Nucleus spectra (Utf1 (mouse)): 16 spectra | Nucleus peptide (Aff4 (mouse)): 13 peptides | Nucleus spectra (Aff4 (mouse)): 25 spectra | Nucleus peptide (Smarcad1 (mouse)): 5 peptides | Nucleus spectra (Smarcad1 (mouse)): 8 spectra | Nucleus peptide (Cbx5 (mouse)): 4 peptides | Nucleus spectra (Cbx5 (mouse)): 12 spectra | Nucleus peptide (Atxn2l (mouse)): 4 peptides | Nucleus spectra (Atxn2l (mouse)): 9 spectra
Substance: human AID containing two tandem Flag tags (Flag-human AID) (from UniProt Q9GZX7 1-198) (enzyme)
